Biological target: Rabbit SA (rabbit) (UniProt P49065)
Assay: competition ELISA (SA08b binding to rabbit albumin)

Sequence of Rabbit SA (rabbit) (P49065 25-608): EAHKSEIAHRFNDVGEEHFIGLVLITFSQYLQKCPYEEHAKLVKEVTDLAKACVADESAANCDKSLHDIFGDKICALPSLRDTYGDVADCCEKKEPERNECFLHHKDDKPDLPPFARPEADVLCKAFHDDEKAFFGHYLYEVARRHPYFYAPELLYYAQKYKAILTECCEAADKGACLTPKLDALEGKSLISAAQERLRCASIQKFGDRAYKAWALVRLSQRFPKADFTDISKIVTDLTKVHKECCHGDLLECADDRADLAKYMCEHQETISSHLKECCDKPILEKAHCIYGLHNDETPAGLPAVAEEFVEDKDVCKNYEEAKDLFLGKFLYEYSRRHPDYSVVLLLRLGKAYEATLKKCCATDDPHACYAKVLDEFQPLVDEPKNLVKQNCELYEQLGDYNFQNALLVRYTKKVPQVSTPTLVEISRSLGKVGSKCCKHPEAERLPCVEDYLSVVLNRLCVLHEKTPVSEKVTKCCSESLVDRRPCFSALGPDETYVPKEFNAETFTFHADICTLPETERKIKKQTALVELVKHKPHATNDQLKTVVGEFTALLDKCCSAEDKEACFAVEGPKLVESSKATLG

Substance: dia4D5
- IC50: 10 nM
